Data as given in US20170029530A1 (AbbVie / Abbott, published 2017).
Changes are numbered by the printed parent chain. Several values for one entry are separate records, joined by “and”; a condition that tells them apart may be missing. Equal values may be shown once.

T1: cDPEP3 (Macaca fascicularis, UniProt Q4R7M2)
T1 construct: extracellular domain; also called cynomolgus DPEP3-His; cynomolgus DPEP3 ECD with histidine tag
T1 sequence (single chain, looked up): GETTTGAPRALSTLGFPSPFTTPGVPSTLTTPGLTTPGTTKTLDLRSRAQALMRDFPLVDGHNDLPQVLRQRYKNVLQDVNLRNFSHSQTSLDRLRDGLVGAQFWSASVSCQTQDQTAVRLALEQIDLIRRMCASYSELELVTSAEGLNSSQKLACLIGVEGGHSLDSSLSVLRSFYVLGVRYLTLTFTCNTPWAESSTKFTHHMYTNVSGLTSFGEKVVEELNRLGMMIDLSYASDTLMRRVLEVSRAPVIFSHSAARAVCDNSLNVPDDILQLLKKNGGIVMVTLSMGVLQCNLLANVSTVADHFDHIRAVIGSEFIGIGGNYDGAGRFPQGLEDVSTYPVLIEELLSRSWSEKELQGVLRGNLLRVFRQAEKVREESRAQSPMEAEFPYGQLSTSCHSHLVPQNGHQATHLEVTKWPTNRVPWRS

T2: mDPEP3 (limits assumed)
T2 construct: also called mouse DPEP3-His; mouse DPEP3 ECD with histidine tag
T2 single chain: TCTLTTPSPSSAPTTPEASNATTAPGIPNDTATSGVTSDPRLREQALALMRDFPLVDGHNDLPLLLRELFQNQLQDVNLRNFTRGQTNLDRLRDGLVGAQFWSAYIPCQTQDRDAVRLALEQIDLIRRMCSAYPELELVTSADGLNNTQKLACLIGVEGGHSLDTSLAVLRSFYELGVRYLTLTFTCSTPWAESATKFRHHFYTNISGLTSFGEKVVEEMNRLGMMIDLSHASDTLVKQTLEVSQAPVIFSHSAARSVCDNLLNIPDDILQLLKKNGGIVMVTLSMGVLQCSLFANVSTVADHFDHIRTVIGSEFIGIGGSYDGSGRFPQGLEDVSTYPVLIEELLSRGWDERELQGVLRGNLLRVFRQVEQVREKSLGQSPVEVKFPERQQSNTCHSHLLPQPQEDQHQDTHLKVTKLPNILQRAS

T3: rat DPEP3 ECD with histidine tag (rat, UniProt Q5U2X4 36-459, limits assumed)
T3 construct: also called rDPEP3-His; ratDPEP3-His; not shown: histidine tag
T3 sequence: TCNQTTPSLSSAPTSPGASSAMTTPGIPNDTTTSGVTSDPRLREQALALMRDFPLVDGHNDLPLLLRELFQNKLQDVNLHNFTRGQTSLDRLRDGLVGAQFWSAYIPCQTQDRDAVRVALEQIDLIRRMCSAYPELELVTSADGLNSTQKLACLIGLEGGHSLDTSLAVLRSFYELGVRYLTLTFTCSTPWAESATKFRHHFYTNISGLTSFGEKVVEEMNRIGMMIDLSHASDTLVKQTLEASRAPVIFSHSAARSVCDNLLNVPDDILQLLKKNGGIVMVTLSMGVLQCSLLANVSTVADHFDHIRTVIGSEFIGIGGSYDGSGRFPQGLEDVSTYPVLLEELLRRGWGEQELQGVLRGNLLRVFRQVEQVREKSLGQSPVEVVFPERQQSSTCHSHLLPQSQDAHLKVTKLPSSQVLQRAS

T4: hDPEP3-ECD-His (human, UniProt Q9H4B8 36-463)
T4 construct: also called hDPEP3-His; monomeric hDPEP3-His antigen; not shown: histidine tag
T4 sequence: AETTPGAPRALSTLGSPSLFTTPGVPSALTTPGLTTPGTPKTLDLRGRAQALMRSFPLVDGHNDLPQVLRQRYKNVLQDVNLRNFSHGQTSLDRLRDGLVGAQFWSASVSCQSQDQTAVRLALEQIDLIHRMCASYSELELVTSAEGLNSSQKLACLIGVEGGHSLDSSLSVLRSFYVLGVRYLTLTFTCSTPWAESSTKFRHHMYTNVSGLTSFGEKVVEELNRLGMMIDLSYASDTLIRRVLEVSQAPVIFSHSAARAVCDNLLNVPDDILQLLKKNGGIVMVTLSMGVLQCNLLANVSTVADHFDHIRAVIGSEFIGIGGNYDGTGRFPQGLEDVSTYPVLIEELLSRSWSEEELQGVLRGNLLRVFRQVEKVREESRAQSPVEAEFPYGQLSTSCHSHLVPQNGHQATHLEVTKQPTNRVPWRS

B1: SC34.89 (antibody, mouse IgG1, V domains shown)
VH: QVQLQQSGAELARPGASVKLSCKASGYTFTSYAISWVKQRTRQGLEWIGEIYPGSGDIHYSGKFKGKASLTTDKSSSTAYMQLSSLTSEDSAVYFCARVHDYGSWFPYWGQGTLVTVSA
VL: DIVMSQSPSSLGVSVGEKVTLSCKSSQSLFNKRDQKNYLAWYQQKPGQSPKLLIYWASTRESGVPDRFTGSGSGTDFILTIRSVKAEDLAVYYCHQSYRYPLTFGAGTKLELK
B2: SC34.19 (antibody, mouse IgG1, V domains shown)
VH: B1 VH with S35T, R42G, D57N, I58T, H59F, Y60F, S61N, G62E, K67R, S69T
VL: DIVMSQSPSALAVSVGEKITMSCKCSQSLLHSRDQKNYLAWYQQKPGQSPKLLIYWASTRESGVPDRFTGSGSGTDFTLTINTVKAEDLAVYYCQQHYRYPLTFGAGTKLELK
B3: SC34.58 mouse anti-DPEP3 antibody (antibody, V domains shown)
VH: QVQLQQSGAELARPGASVKLSCKASGYTFTSYGVNWVKQRTGQGLEWIGEIYPGRGDVYYNDNFKGKATLTTDKSSSTAYMQLSSLTSEDSAVYFCARVHDYGSWFPYWGQGTLVTVSA
VL: B2 VL with A10S, I19V, C25S, H31Y, D34N, N82S, T83S, Q95H, K113R
notes: Mouse hybridoma antibody
B4: SC34.13 (antibody, mouse IgG2a, V domains shown)
VH: B1 VH with L4V, R42G, D57N, I58T, H59Y, S61N, S69T, H100D
VL: DIVMSQSPSSLAVSVGEKVTLSCKSSQSLLYSRYQKNYLAWYQQKPGQSPRLVIYWASTRESGVPDRFTGSGSGTDFTLTISSVKAEDLVVYYCQQYYRYPLTFGSGTKLELK
B5: SC34.87 (antibody, mouse IgG2a, V domains shown)
VH: QVQLQQSGAELAKPGASVKMSCKASGYTFTSYWMLWVKQRPGQGLEWIGYIDPRNGYTEYNQKFKDKATLTADKSSSTAYMQLSSLTSEDSAVYYCTRGGNVAMDYWGQGTSVTVSS
VL: DIVMSQSPSSLAVSAGEKVTMSCKSSQSLLNSRTRKNYLAWYQQKPGQSPKLLIYWASTRESGVPGRFTGSGSGTDFTLTISSVQAEDLAVYYCKQSYNLWTFGGGTKLEIK
B6: SC34.16 (antibody, mouse IgG1, V domains shown)
VH: QVQLQQSGTELARPGASVKLSCKASEYTFTSYAITWVRQRTGQGLEWIGEIYPGSGNTYYNETFKGKATLTSDKSSSTASMQLSSLTSEDSAVYFCARVHDYGSWFPYWGQGTLVTVSA
VL: B4 VL with L21M, R51K, V53L, A57S, V90A, V91D, S106A
B7: SC34.25 (antibody, mouse IgG1, V domains shown)
VH: QVQLQQSGVELARPGASVKVSCKASGYTFTSYAISWVKQRTGQGLEWIGEIYPGSGETYYNEKFKGKATLTTDKSSSTAYMHLSSLTSEDSAVYLCGRVNDYGSWFPYWGQGTLVTVSA
VL: B4 VL with V15G, L21M, L39V, R51K, V53L, V90A, S106A
B8: SC34.5 (antibody, mouse IgG1, V domains shown)
VH: EVQLQQSGPELVKPGASMKISCKASGYSFTGYTMNWVKQSHGKNLEWIGLIYPYNDDTRYKQKFKGKATLTVDKSSSTAYMELLSLTSEDSAVYYCTRGYYGSPYFDVWGAGTTVTVSS
VL: DIVMTQFPSSLAMSVGQKVTMNCKSSQSLLNSSNQKNYLAWFQQKPGQSPKLLVYFASTRESGVPDRFLGSGSGTDFTLTISSVQAEDLADYFCQQHYSTPFTFGSGTKLEIK
notes: also called SC34.05
B9: SC34.14 (antibody, mouse IgG1, V domains shown)
VH: EVQLQQSGPEMVKPGASVKISCKASGYIFTDYYMHWVKQSHGESLDWIGRVNPKKGGTTYNQKFEGKAILTVDKSSSTAYMDLNSLTSEDSAVYYCAMGIYYSYDASFDYWGQGTTLTVSS
VL: DIQMTQAPASLSPSVGATVTITCRTSEHIYSYLAWYQQKQGKSPRLLVYNAKTLAEGVSSRFSGSGSGTQFSLQINSLQPEDFGNYYCQHHYDTPYTFGGGTKLEIK
B10: SC34.48 (antibody, mouse IgG1, V domains shown)
VH: B9 VH with P9L, E43K, I69T, Y102F
VL: B9 VL with P13A, A17E, E27G, R45Q, Q74K, N76T, N85D

Target: T5, hDPEP2 ECD with histidine tag (human, UniProt Q9H4A9 33-463)
T5 construct: also called hDPEP2-His; not shown: histidine tag
T5 sequence (Q9H4A9 33-463): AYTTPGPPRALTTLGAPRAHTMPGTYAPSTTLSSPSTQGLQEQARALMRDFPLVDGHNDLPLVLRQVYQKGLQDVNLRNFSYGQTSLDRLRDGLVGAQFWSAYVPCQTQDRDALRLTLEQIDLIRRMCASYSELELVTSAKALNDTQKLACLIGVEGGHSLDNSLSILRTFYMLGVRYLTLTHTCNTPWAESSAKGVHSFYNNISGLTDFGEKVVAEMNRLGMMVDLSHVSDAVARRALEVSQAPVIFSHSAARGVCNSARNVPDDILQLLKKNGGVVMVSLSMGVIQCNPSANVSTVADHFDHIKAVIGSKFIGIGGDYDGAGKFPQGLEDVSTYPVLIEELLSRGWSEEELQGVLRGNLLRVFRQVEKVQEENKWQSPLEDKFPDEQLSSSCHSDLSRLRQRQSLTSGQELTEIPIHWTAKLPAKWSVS
Test: ELISA, coated antigen
Method: (§1) The anti-DPEP3 antibodies were screened by ELISA for cross-reactivity with mouse, rat and cynomolgus DPEP3 and for cross reactivity to hDPEP2, the closest DPEP3 family member. ELISA was conducted as follows. Plates were coated with purified mouse, rat or cynomolgus DPEP3-His or hDPEP2-His at 0.3 μg/mL in 0.2 M carbonate-bicarbonate buffer, pH 9.4 overnight at 4° C. The protein solution was removed and the wells were blocked with 1% (w/v) BSA in PBS (PBSA), 100 μL/well for 1 hour at 37° C. Anti-DPEP3 antibody or a mouse isotype control antibody was then added at 1 μg/mL in 50 μL PBSA for 1 hour at room temperature. After washing with water, 50 μL/well HRP-labeled goat anti-mouse IgG antibody diluted 1:10,000 in PBSA was added for 30 min at room temperature. The plates were washed and developed by the addition of 40 μL/well of the TMB substrate solution (Thermo Scientific) at room temperature. An equal volume of 0.2 M H₂SO₄ was added to stop substrate development. The samples were then analyzed by spectrophotometer at OD 450. […] The cross reactivity results for exemplary DPEP3-specific antibodies can be seen in FIG. 4.

binding result	Binder
no binding (tested: 1 ug/mL)	B1
no binding (tested: 1 ug/mL)	B2
no binding (tested: 1 ug/mL)	B3
no binding (tested: 1 ug/mL)	B4
no binding (tested: 1 ug/mL)	B5
no binding (tested: 1 ug/mL)	B6
no binding (tested: 1 ug/mL)	B7
no binding (tested: 1 ug/mL)	B8

Target: T1, cDPEP3
Test: ELISA, coated antigen
Method: as §1

binding result	Binder
no binding (tested: 1 ug/mL)	B9
no binding (tested: 1 ug/mL)	B10
no binding (tested: 1 ug/mL)	B5
no binding (tested: 1 ug/mL)	B8

Target: T2, mDPEP3
Test: ELISA, coated antigen
Method: as §1

binding result	Binder
no binding (tested: 1 ug/mL)	B9
no binding (tested: 1 ug/mL)	B10
no binding (tested: 1 ug/mL)	B1
no binding (tested: 1 ug/mL)	B2
no binding (tested: 1 ug/mL)	B3
no binding (tested: 1 ug/mL)	B4
no binding (tested: 1 ug/mL)	B5
no binding (tested: 1 ug/mL)	B6
no binding (tested: 1 ug/mL)	B7
no binding (tested: 1 ug/mL)	B8

Target: T3, rat DPEP3 ECD with histidine tag
Test: ELISA, coated antigen
Method: as §1

binding result	Binder
no binding (tested: 1 ug/mL)	B9
no binding (tested: 1 ug/mL)	B10
no binding (tested: 1 ug/mL)	B1
no binding (tested: 1 ug/mL)	B2
no binding (tested: 1 ug/mL)	B3
no binding (tested: 1 ug/mL)	B4
no binding (tested: 1 ug/mL)	B6
no binding (tested: 1 ug/mL)	B7
no binding (tested: 1 ug/mL)	B8

Target: T4, hDPEP3-ECD-His
Test: BLI ForteBio RED, 200 nM hDPEP3-His, estimated grade
Method: The affinity of the antibodies for hDPEP3-His was qualitatively determined from kinetics curves generated with a ForteBio RED as follows. Anti-DPEP3 antibodies were immobilized onto anti-mouse Fc capture biosensors with a contact time of 3 mins. and a flow rate of 1000 rpm. The captured antibody loading from baseline was constant at 0.3-1 units. Following antibody capture and 30 second baseline, the biosensors were dipped into a 200 nM solution of hDPEP3-His for a 4 min. association phase followed by a 3 min. dissociation phase at a shaking rate of 1000 rpm. The biosensors were regenerated by dipping into 10 mM glycine, pH 1.7 following each cycle. The data was processed by subtracting a control mouse IgG surface response from the specific antibody response and data was truncated to the association and dissociation phase. The association and dissociation curves were used to qualitatively estimate the affinities of selected antibodies. […] A designation of “ND” means that the estimated KD was not determined.

Kd	Binder
< 5 nM	B9
< 5 nM	B10
< 5 nM	B1
≥ 5 nM and ≤ 10 nM	B2
< 5 nM	B3
≥ 5 nM and ≤ 10 nM	B4
≥ 5 nM and ≤ 10 nM	B5
< 5 nM	B6
< 5 nM	B7
< 5 nM	B8
